From patent publication US20170335404A1 (REGENTS OF THE UNIVERSITY OF MINNESOTA, published 2017) come the findings set out here.

Assay [1] has as its target recombinant human Nectin-1 extracellular domain (human) (UniProt Q15223). Put plainly: cell-based or functional assay.
Assay [2] concerns the target T1, recombinant human Nectin-1 extracellular domain (human, UniProt Q15223 31-355).
T1 sequence (looked up): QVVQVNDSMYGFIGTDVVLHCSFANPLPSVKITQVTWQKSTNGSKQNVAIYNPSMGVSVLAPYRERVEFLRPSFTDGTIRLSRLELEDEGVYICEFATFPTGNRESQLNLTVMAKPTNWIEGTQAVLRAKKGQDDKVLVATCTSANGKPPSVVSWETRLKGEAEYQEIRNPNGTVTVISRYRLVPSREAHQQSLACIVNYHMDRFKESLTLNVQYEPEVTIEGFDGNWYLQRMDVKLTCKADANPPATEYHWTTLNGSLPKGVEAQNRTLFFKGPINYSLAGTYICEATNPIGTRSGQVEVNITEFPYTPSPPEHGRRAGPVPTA
Description: cell-based or functional assay.

Assay [3] deals with full-length Nectin-4 overexpressed on NIH:OVCAR5-N4-over cells, Q96NY8. Description: cell-based or functional assay.
The target of assay [4] is T2, Nectin-4 natively expressed on NIH:OVCAR5 parental cells (human, UniProt Q96NY8 32-510).
T2 construct: whole, on cells; The cells also express Nectin-1; also called NIH:OVCAR-5 cells
T2 sequence (looked up): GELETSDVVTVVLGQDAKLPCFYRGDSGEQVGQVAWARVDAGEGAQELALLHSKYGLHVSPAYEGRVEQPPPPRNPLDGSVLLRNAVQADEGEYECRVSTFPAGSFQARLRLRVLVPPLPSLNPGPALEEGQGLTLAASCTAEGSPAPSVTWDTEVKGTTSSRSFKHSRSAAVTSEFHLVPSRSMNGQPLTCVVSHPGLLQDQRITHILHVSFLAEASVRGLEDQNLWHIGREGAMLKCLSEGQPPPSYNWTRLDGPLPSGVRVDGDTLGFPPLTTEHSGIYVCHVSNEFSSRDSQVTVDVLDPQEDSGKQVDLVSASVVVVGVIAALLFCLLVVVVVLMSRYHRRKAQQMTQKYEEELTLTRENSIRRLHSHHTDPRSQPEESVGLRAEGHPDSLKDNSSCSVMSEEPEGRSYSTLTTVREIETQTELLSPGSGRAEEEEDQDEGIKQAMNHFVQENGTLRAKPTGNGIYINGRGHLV
Description: cell adhesion assay, NIH:OVCAR5 parental cells on coated microtiter plates. The procedure: Black, clear-bottom 96-well microtiter plates (Corning, Imported Costar, Corning, N.Y.) were coated with recombinant human Nectin-1 extracellular domain (R&D Systems), recombinant human Nectin-4 extracellular domain (R&D Systems), mouse laminin (Invitrogen™), or bovine serum albumin (BSA; Prohumin Diagnostic Grade, MilliPore) diluted in PBS. Covered plates were incubated overnight at 37° C. in a humidified incubator. After washing with PBS plus Ca²⁺/Mg²⁺ containing 2 mg/ml ovalbumin (Sigma-Aldrich), the plates were blocked for 1 h at 37° C. with 1% BSA in PBS without Ca²⁺/Mg²⁺. Confluent monolayers of NIH:OVCAR5 cells or NIH:OVCAR5-N4-over cells were detached with Accutase, and then filtered through a 40 μm cell strainer (BD Biosciences, San Jose, Calif.) to remove cell aggregates. The single cells were stained with CellTracker Green CMFDA (5-chlorornethylfluorescein diacetate; Invitrogen™) according to the manufacturer's protocol. After washing the plate, 30,000 cells were added to each well in 50 μl of RPMI 1640 media containing 2 mg/ml ovalbumin and allowed to adhere for 15-60 min at 37° C. Plates were vigorously washed four times and read in a BioTek Synergy fluorescent microplate reader (BioTek, Winooski, Va.). Experiments were conducted in triplicate. […]

For the molecule “mouse monoclonal antibody against human Nectin-1, R&D Systems MAB2880, clone #610835”, the inhibition of cell adhesion to Nectin-1 in assay [1] was 60%.

B1: N4-P10 (peptide)
peptide: H-QARLRLRVLVPPLP-NH2
B1: in assay [2], the “inhibition of adhesion of NIH:OVCAR5-N4-over cells to Nectin-1” value was ≥ 50 >=50 of the printed range 50-100 %.

B2: N4-P29 (peptide)
peptide: H-TGNGIYINGRGHLV-NH2
With B2, the “inhibition of adhesion of NIH:OVCAR5-N4-over cells to Nectin-1” value in assay [2] is ≥ 50 >=50 of the printed range 50-100 %.

B3: N4-P22 (peptide)
peptide: H-WTRLDGPLPSGVRV-NH2
For B3, the “inhibition of adhesion of NIH:OVCAR5-N4-over cells to Nectin-1” value in assay [2] was ≥ 50 >=50 of the printed range 50-100 %.

B4: N1-P17 (peptide)
peptide: H-ACIVNYHMDRFKES-NH2
For B4, the inhibition of adhesion of NIH:OVCAR5-N4-over cells to Nectin-1 in assay [3] is over 50%.

B5: N1-P1 (peptide)
peptide: H-HSQVVQVNDSMYGF-NH2
B5: in assay [3], the inhibition of adhesion of NIH:OVCAR5-N4-over cells to Nectin-1 was over 50%.

B6: N1-P26 (peptide)
peptide: H-VNITEFPYTPSPPEHGRRA-NH2
In assay [3], B6 displayed an inhibition of adhesion of NIH:OVCAR5-N4-over cells to Nectin-1 of over 50%.

B7: N4-P18 (peptide)
peptide: H-QRITHILHVSFLAE-NH2
Turning to B7, the “inhibition of adhesion of NIH:OVCAR5-N4-over cells to Nectin-1” value in assay [2] was ≥ 50 >=50 of the printed range 50-100 %.

B8: recombinant human Nectin-4 extracellular domain (receptor, UniProt Q96NY8 32-349, looked up)
chain: GELETSDVVTVVLGQDAKLPCFYRGDSGEQVGQVAWARVDAGEGAQELALLHSKYGLHVSPAYEGRVEQPPPPRNPLDGSVLLRNAVQADEGEYECRVSTFPAGSFQARLRLRVLVPPLPSLNPGPALEEGQGLTLAASCTAEGSPAPSVTWDTEVKGTTSSRSFKHSRSAAVTSEFHLVPSRSMNGQPLTCVVSHPGLLQDQRITHILHVSFLAEASVRGLEDQNLWHIGREGAMLKCLSEGQPPPSYNWTRLDGPLPSGVRVDGDTLGFPPLTTEHSGIYVCHVSNEFSSRDSQVTVDVLDPQEDSGKQVDLVSAS
notes: extracellular domain; Bought reagent, coated on microtiter plates; also called recombinant Nectin-4
For the molecule B8, the binding result in assay [4] was “no binding (tested: 1 µg/well, up to 1 h)”.

B9: N1-P20 (peptide)
peptide: H-NWYLQRMDVKLTCK-NH2
In assay [3], B9 came in with an inhibition of adhesion of NIH:OVCAR5-N4-over cells to Nectin-1 of over 50% and an inhibition of cell adhesion of 100%.
